Assay results published in PMC11224109, “Synthesis and preclinical evaluation of novel ^18F-vancomycin-based tracers for the detection of bacterial infections using positron emission tomography” (European Journal of Nuclear Medicine and Molecular Imaging, 2024).

Columns and labels:
[1] = Summary of tracer stability in vitro and in vivo
Method: Stability of the tracers was determined in PBS and human plasma. In a typical experiment, 1 MBq of radioactivity (10–20 µL) was added to 250 µL of PBS or human plasma. Samples were heated to 37 °C on a shaker and sampled at fixed intervals. For samples containing human plasma, protein was precipitated using two volumes of cold MeCN. Precipitated samples were briefly centrifuged to pellet the insoluble fraction and supernatant was used for stability assessment. Supernatant (1 µL) was loaded on a TLC plate and imaged using BAS-IP MS 2025 E plates (Fujifilm, Tokyo, Japan) on an Amersham Typhoon Biomolecular Imager (GE Healthcare Bio-Sciences Corp, Chicago, United States) equipped with a phosphor imaging stage. [^18F]BODIPY-FL-vancomycin has an Rf of 0.68 (petroleum ether/MeOH 3:1), [^18F]FB-vancomycin has an Rf of 0.66 (2 M NaOAc/MeOH 5:1). For [^18F]PQ-VE1-vancomycin, conditions described in [44] were used.

S. aureus = test: In vitro tracer binding to S. aureus; set-up: species or system Staphylococcus aureus; settings: clinical isolate, culture OD600 about 3.0, 37 °C, sampled at 0, 15 and 30 min, washed twice, gamma counter
Method: (§1) Single colonies of clinical S. aureus and E. coli isolates were used to inoculate TSB and incubated overnight. From the overnight cultures, fresh cultures were started and grown to an optical density at 600 nm (OD600) of approximately 3.0. Both strains were incubated with tracer (3.5 MBq in 1 mL 0.9% saline) in a water bath at 37 °C. The final tracer concentration was 120 kBq ± 28 (38.6 pg ± 9.1 and 0.5 pg ± 0.1 of [^18F]BODIPY-FL-vancomycin and [^18F]PQ-VE1-vancomycin, respectively) per mL culture. At fixed time intervals (0, 15 and 30 min), aliquots were collected (2.0 mL in a 2 mL Eppendorf tube) and washed twice with sterile PBS (1.0 mL per washing step). In each washing step, the bacteria were pelleted by centrifugation (10.000 rpm, 60 s) and resuspended in fresh PBS. […] Measurements were corrected for background and decay. Results are reported as counts per s (Bq). To correlate bound tracer with the number of bacteria in a sample, the bacterial suspensions (2 ×) were plated and CFUs were counted.

E. coli = test: In vitro tracer binding to E. coli; set-up: species or system Escherichia coli; settings: clinical isolate, culture OD600 about 3.0, 37 °C, sampled at 0, 15 and 30 min, washed twice, gamma counter
Method: as §1

in vivo = settings: in vivo; for tissue uptake at 0.5 h / tissue uptake at 1 h / tissue uptake at 1.5 h: male, C57BL/6, mouse, 2 MBq, total radioactivity, Biodistribution
Method: All murine experiments were approved by the Animal Care and Use Committee of the University of Groningen under license protocol number 2114768-01-001. In vivo biodistribution was performed in male C57BL/6 mice (age 8 weeks, 25 g). Per tracer, the animals were divided in three groups based on the tracer distribution times (30 min, 60 min, and 90 min). […] Each experimental arm (i.e. time point) consisted of three animals. […] Tracer was administered at t = 0 via penile vein injection (2.0 ± 0.9 MBq in 100 µL 0.9% saline solution, Supplemental Table 2). After tracer administration, the animals were transferred to a Siemens Focus 220 microPET small animal scanner (Siemens, Munich, Germany) and scanned for the designated time, followed by a transmission scan of 10 min for attenuation correction. PET data were normalized and corrected for decay, after which the PET data were reconstructed using OSEM2D-Z1-SC-256. The PET data frames used for reconstruction were: 6 × 10 s, 4 × 30 s, 2 × 60 s, 120 s, 180 s, 4 × 300 s, 3 × 600 s, 1200 s or until the designated scan time was reached, taking into account a 10-min transmission scan following the emission scan. Next, animals were terminated, and organs harvested to assay biodistribution in a calibrated gamma counter (Wizard2, Perkin Elmer, Waltham, United States).

[2] = Distribution coefficient LogD7.4, shake-flask n-octanol/PBS; type: physicochemical; settings: shake-flask n-octanol/PBS pH 7.4, 500 µL each, 10 µL tracer in saline, vortexed 30 s, shaken 15 min, gamma counter, mean ± SD
Method: The tracer distribution coefficient in n-octanol/PBS pH 7.4 (LogD7.4) was determined using a shake-flask methodology. To an Eppendorf tube containing 500 µL n-octanol and 500 µL PBS, 10 µL tracer solution in saline was added. The vial was vortexed for 30 s and placed on an Eppendorf shaker for 15 min. After incubation, layers were separated by centrifugation (1 min at 10.000 rpm) and a fraction of the n-octanol layer was pipetted off. To minimize contamination of the bottom layer with the n-octanol layer, the bottom PBS layer was collected by puncturing the bottom of the Eppendorf tube with a 22G needle and aspirating a fraction of the PBS layer. Collected fractions were weighted to correct for collected volume and subsequently measured on a calibrated gamma counter and corrected for decay. LogD7.4 was calculated as [drawing 1] .

Cc1cc(C)n2c1C=C1C=CC(CCC(=O)N(C)[C@H](CC(C)C)C(=O)N[C@H]3C(=O)N[C@@H](CC(N)=O)C(=O)N[C@H]4C(=O)N[C@H]5C(=O)N[C@H](C(=O)N[C@H](C(=O)O)c6cc(O)cc(O)c6-c6cc5ccc6O)[C@H](O)c5ccc(c(Cl)c5)Oc5cc4cc(c5O[C@@H]4O[C@H](CO)[C@@H](O)[C@H](O)[C@H]4O[C@H]4C[C@](C)(N)[C@H](O)[C@H](C)O4)Oc4ccc(cc4Cl)[C@H]3O)=[N+]1[B-]2(F)F [[^18F]BODIPY-FL-vancomycin]
Stability [1]: Stable in vitro and in vivo up to 2 h.
Binding to S. aureus (S. aureus): rapid and selective binding to S. aureus
Binding to E. coli (E. coli): not to E. coli
tissue uptake at 0.5 h (in vivo; iv, Bladder): 4.83 %ID/g
tissue uptake at 1 h (in vivo; iv, Bladder): 7.62 %ID/g
tissue uptake at 1.5 h (in vivo; iv, Bladder): 9.43 %ID/g
tissue uptake at 0.5 h (in vivo; iv, Bone): 1.2 %ID/g
tissue uptake at 1 h (in vivo; iv, Bone): 2.71 %ID/g
tissue uptake at 1.5 h (in vivo; iv, Bone): 3.27 %ID/g
tissue uptake at 0.5 h (in vivo; iv, Brain): 0.05 %ID/g
tissue uptake at 1 h (in vivo; iv, Brain): 0.09 %ID/g
tissue uptake at 1.5 h (in vivo; iv, Brain): 0.05 %ID/g
tissue uptake at 0.5 h (in vivo; iv, Fat): 0.59 %ID/g
tissue uptake at 1 h (in vivo; iv, Fat): 0.67 %ID/g
tissue uptake at 1.5 h (in vivo; iv, Fat): 0.49 %ID/g
tissue uptake at 0.5 h (in vivo; iv, Heart): 0.96 %ID/g
tissue uptake at 1 h (in vivo; iv, Heart): 1.25 %ID/g
tissue uptake at 1.5 h (in vivo; iv, Heart): 0.81 %ID/g
tissue uptake at 0.5 h (in vivo; iv, Kidneys): 7.77 %ID/g
tissue uptake at 1 h (in vivo; iv, Kidneys): 7.13 %ID/g
tissue uptake at 1.5 h (in vivo; iv, Kidneys): 7 %ID/g
tissue uptake at 0.5 h (in vivo; iv, Large intestine): 0.93 %ID/g
tissue uptake at 1 h (in vivo; iv, Large intestine): 1.34 %ID/g
tissue uptake at 1.5 h (in vivo; iv, Large intestine): 0.91 %ID/g
tissue uptake at 0.5 h (in vivo; iv, Liver): 2.27 %ID/g
tissue uptake at 1 h (in vivo; iv, Liver): 3.47 %ID/g
tissue uptake at 1.5 h (in vivo; iv, Liver): 2.86 %ID/g
tissue uptake at 0.5 h (in vivo; iv, Lungs): 4.59 %ID/g
tissue uptake at 1 h (in vivo; iv, Lungs): 6.68 %ID/g
tissue uptake at 1.5 h (in vivo; iv, Lungs): 4.39 %ID/g
tissue uptake at 0.5 h (in vivo; iv, Muscle): 0.42 %ID/g
tissue uptake at 1 h (in vivo; iv, Muscle): 0.66 %ID/g
tissue uptake at 1.5 h (in vivo; iv, Muscle): 0.46 %ID/g
tissue uptake at 0.5 h (in vivo; iv, Plasma): 2.41 %ID/g
tissue uptake at 1 h (in vivo; iv, Plasma): 3.25 %ID/g
tissue uptake at 1.5 h (in vivo; iv, Plasma): 2.13 %ID/g
tissue uptake at 0.5 h (in vivo; iv, Small intestine): 1.1 %ID/g
tissue uptake at 1 h (in vivo; iv, Small intestine): 2.01 %ID/g
tissue uptake at 1.5 h (in vivo; iv, Small intestine): 1.89 %ID/g
tissue uptake at 0.5 h (in vivo; iv, Spleen): 1.41 %ID/g
tissue uptake at 1 h (in vivo; iv, Spleen): 3.02 %ID/g
tissue uptake at 1.5 h (in vivo; iv, Spleen): 2.73 %ID/g
tissue uptake at 0.5 h (in vivo; iv, Stomach): 1.16 %ID/g
tissue uptake at 1 h (in vivo; iv, Stomach): 1.59 %ID/g
tissue uptake at 1.5 h (in vivo; iv, Stomach): 0.98 %ID/g
tissue uptake at 0.5 h (in vivo; iv, Whole blood): 1.68 %ID/g
tissue uptake at 1 h (in vivo; iv, Whole blood): 1.86 %ID/g
tissue uptake at 1.5 h (in vivo; iv, Whole blood): 1.1 %ID/g
Accumulation (in vivo; mouse): Accumulation in liver, kidneys and lungs
Muscle uptake (in vivo; mouse): Low muscle uptake
Crossing of the blood-brain barrier (BBB) (in vivo; mouse, iv): no substantial signal was observed in the brain
LogD7.4 [2]: -1.72 ± 0.02 (n = 10)
